Experimental data as given in patent US20260148804A1 (NANJING GENSCRIPT BIOTECH, published 2026).

Molecular target: T1, recombinant TNFRSF9 protein (Homo sapiens (Human), UniProt Q07011 24-186)
T1 construct: also called 4-1BB; antigen
Test: indirect ELISA, plate coated with 0.5 ug/ml recombinant TNFRSF9 protein, antibody titrated 3-fold from 1 ug/ml
Description: The antibody affinity detection method was an enzyme-linked immunosorbent assay (ELISA) based on an indirect method. Indirect ELISA was used for evaluating the ability of the purified antibody to bind the antigen TNFRSF9 protein. The specific steps were as follows: the ELISA plate was coated with 0.5 μg/ml recombinant TNFRSF9 protein in PBS at 100 μl/well at 4° C. overnight. The plate was washed with PBS-T (0.05% Tween) and blocked with 250 μl/well of PBST containing 1% BSA at 37° C. for 2 hours. Subsequently, the blocking solution was discarded, and 100 μl of the 1 μg/ml purified antibody was added to the first well and 3-fold diluted in a gradient to prepare a total of 11 serial test concentrations, and additionally a blank well was prepared. The plate was then incubated at 37° C. for 1 hour. […] The plate was washed four times with PBST, a TMB color development solution (GenScript) was then added, and the plate was incubated in the dark at 25° C. for 15 minutes. […] The plate was read at 450 nm using a microplate reader.

B1: 81E11WTH (antibody, V domains shown)
VH: QSVKESEGGLFKPTDTLTLACTVSGFSLSYNAITWVRQAPGNGLEWIGVINYDGTTVYASWAKSRSTITRNTNLNTVTLKMTSLTAADTATYFCARNFNIWGPGTLVTVSS
VL: AAVLTQTPSPVSVTVGGTVTINCQASQSVDNNNYLAWFQQKPGQPPKQLIYSASTLASGVSSRFKGSGSGTQFTLTISGVQCDDAATYYCLGEFSASSGDWNAFGGGTEVVVK
notes: also called control 81E11WTH
Binder B1 has an EC50 of 2.6 ng/mL.
